# From patent US20260258124A1 (CIMEIO THERAPEUTICS, published 2026)
# Numbering of substitutions follows the chain as printed.
# B1: NegCtrl (antibody, V domains shown)
# VH: QVQLQQSGPGLVKPSQTLSLTCAISGDSVSSNSAAWSWIRQSPGRGLEWLGRIYYRSKWYNDYAVSVKSRITINPDTSKNQFSLQLNSVTPEDTAVYYCARLDHRYHEDTVYPGMDVWGQGTLVTVSS
# VL: DIELTQPPSVSVAPGQTARISCSGDNLPAYTVTWYQQKPGQAPVLVIYDDSDRPSGIPERFSGSNSGNTATLTISGTQAEDEADYYCASWDPSSGVVFGGGTKLTVL
# notes: also called NegCtrl antibody (anti-chicken lysozyme); NegCtrt
# B2: Dufour (antibody, V domains shown)
# VH: QVQLVQSGAEVKKPGASVKVSCKASGYTFTSYNMHWVRQAPGQGLEWMGVIYSGNGDTSYNQKFKGRVTMTTDTSTSTAYMELRSLTSDDTAVYYCARERDTRFGNWGQGTLVTVSA
# VL: EIVLTQSPSSLSASVGDRVTITCRASESVDIYGNSFMHWYQQKPGKAPKLLIYLASNLESGVPSRFSGSGSGTDFTLTISSLQPEDFATYYCQQNNEDPYTFGQGTKLEIK
# notes: IgG; also called VH1/VL1; HC1 LC1
# B3: Dreieckhorn (antibody, V domains shown)
# VH: B2 VH with N55Q
# VL: B2 VL with N34E, L54S, N96R, D98E
# notes: IgG; also called VH1.4/VL1.32
# B4: Nesthorn (antibody, V domains shown)
# VH: B2 VH with N55Q
# VL: B2 VL with N34E, L54E, N96R, D98E
# notes: IgG; also called VH1.4/VL1.31
# B5: Piz Morteratsch (antibody, V domains shown)
# VH: B2 VH with N55Q
# VL: B2 VL with N34E, L54Q, N96R, D98E
# notes: IgG; also called VH1.4/VL1.33
# B6: Piz Palü (antibody, V domains shown)
# VH: B2 VH with N55Q
# VL: B2 VL with N34E, L54H, N96R, D98E
# notes: IgG; also called VH1.4/VL1.30
# B7: Allalinhorn (antibody, V domains shown)
# VH: B2 VH
# VL: EIVLTQSPSSLSASVGDRVTITCRASESVDIYGESFMHWYQQKPGKAPKLLIYLASNLESGVPSRFSGSGSGTDFTLTISSLQPEDFATYYCQQNKEEPYTFGQGTKLEIKR
# notes: IgG; also called VH1/VL1.19; Allaninhorn
# B8: Bietschhorn (antibody, V domains shown)
# VH: B2 VH
# VL: B7 VL with K96R
# notes: IgG; also called VH1/VL1.29
# B9: Piz Roseg (antibody, V domains shown)
# VH: B2 VH
# VL: B7 VL with E34S, L54K
# notes: IgG; also called VH1/VL1.28
# B10: Piz Bernina (antibody, V domains shown)
# VH: B2 VH
# VL: B7 VL with K96N
# notes: IgG; also called VH1/VL1.17
# B11: Balmhorn (antibody, V domains shown)
# VH: B2 VH with N55Q
# VL: B7 VL
# notes: IgG; also called VH1.4/VL1.19
# B12: Eiger (antibody, V domains shown)
# VH: B2 VH
# VL: B7 VL with E34S
# notes: IgG; also called VH1/VL1.26
# B13: Piz Argient (antibody, V domains shown)
# VH: B2 VH
# VL: B7 VL with E34H
# notes: IgG; also called VH1/VL1.27
# Experiments:
# [1] = molecular target: T1, CD117 on wild-type cells (TF-1 cells, HSPCs, HSCs) (human, UniProt P10721 26-976); assay: cell-based or functional assay
# [2] = molecular target: T1, CD117 on wild-type cells (TF-1 cells, …); assay: cell-based or functional assay; remark: listed apart in the source
# [3] = molecular target: T1, CD117 on wild-type cells (TF-1 cells, …); assay: flow cytometry on TF-1 wild-type cells, Fc receptors blocked, goat anti-human IgG Alexa Fluor 488 as secondary antibody
# Experimental: Binding of the antibodies of the present disclosure to CD117 on TF-1 cells was measured. TF-1 wild-type cells were seeded at a concentration of 100,000 cells/well. A Fc receptor blocking was performed using 25 μL TruStain FcX (BioLegend) for 15 min. Next cells are treated with various concentrations of the antibodies to be tested (0.0001-5 μg/ml). After additional 30 min cells were washed, then a secondary antibody was added to the cells (IgG (H+L) Cross-Adsorbed Goat anti-Human, Alexa Fluor® 488). After 30 min and two additional wash steps a live dead staining via 7AAD (7-aminoactinomycin D) was performed using 0.5 μg/mL 7AAD for 10 min before analyzing cells in a flow cytometer.
# [4] = molecular target: T2, human recombinant CD117 (c-Kit) from Sino Biological (Catalog No. 11996-H08H) (human, UniProt P10721 26-524); assay: BLI Octet, set-up as in Example 2
# T2 construct: also called soluble antigen
# Experimental: (§1) In the main experiment kinetic assays were performed by first capturing IgG using anti-human Fc biosensors. The mAb capture biosensors were then submerged in wells containing different concentrations of antigen (association stage) followed by a dissociation step in running buffer. To allow for double reference correction, IgG-captured sensors were dipped into wells containing only buffer and blank sensors were also dipped into wells containing the antigen. This referencing provided a means of compensating for both the natural dissociation of the capture IgG and non-specific binding of the antigen to the sensor surface. Steps were performed at 25° C. at a constant shaking of 1000 rpm. New sensors were used for each sample. Dissociation rate constants (Kd) were calculated using the ForteBio Data Analysis software. All consumables used were those recommended by ForteBio.
# (§2) All samples were diluted in freshly prepared running buffer. Antibody variants were immobilized onto the surface of a series of biosensors using the capture methods described. Antigen was passed over the surface to generate a binding response. Binding data for the IgG:antigen interactions were collected at 25° C. on the biosensors. A dilution series of the antigen was used in the association step, in order to fit results globally and get the best values for ka, kd, and KD. The response data for the binding of antigen to the surface immobilized IgG were fitted to a 1:1 binding model. HC0 LC0 refers to murine SR-1.
# [5] = molecular target: T2, human recombinant CD117 (c-Kit) from …; assay: BLI Octet, IgG on anti-human Fc sensor, soluble CD117, 1:1 fit
# Experimental: (§3) IgG antibodies were immobilized on biosensors using suitable capture surfaces and binding of soluble antigen to immobilized antibodies was monitored by BLI (Octet). The resulting sensorgrams were analyzed using the supplied software (Fortebio). As antigen human recombinant CD117 (c-Kit) from Sino Biological was used (Catalog No. 11996-H08H, Lot #LC14SE0812). As a pre-experiment a series of experiments was performed to optimize assay parameters. The following parameters were selected:
# as §1, §2
# [6] = molecular target: T2, human recombinant CD117 (c-Kit) from …; assay: BLI Octet, set-up as in Example 2; remark: listed apart in the source
# Experimental: as §3, §1
# T2 sequence (P10721 26-524 limits assumed): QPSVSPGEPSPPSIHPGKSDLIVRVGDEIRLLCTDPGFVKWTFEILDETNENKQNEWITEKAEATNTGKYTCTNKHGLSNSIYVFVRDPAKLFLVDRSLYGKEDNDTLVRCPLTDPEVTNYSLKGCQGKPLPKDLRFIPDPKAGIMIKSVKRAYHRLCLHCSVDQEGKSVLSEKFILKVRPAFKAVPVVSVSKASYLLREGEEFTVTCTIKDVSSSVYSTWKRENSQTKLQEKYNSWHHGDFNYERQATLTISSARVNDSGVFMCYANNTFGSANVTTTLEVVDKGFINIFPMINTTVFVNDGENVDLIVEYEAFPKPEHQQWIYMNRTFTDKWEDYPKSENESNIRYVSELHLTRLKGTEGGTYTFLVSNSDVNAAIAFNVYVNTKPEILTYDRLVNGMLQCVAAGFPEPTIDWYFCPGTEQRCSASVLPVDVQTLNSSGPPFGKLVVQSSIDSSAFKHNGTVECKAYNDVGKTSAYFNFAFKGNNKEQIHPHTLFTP
# T1 sequence (P10721 26-976 limits assumed): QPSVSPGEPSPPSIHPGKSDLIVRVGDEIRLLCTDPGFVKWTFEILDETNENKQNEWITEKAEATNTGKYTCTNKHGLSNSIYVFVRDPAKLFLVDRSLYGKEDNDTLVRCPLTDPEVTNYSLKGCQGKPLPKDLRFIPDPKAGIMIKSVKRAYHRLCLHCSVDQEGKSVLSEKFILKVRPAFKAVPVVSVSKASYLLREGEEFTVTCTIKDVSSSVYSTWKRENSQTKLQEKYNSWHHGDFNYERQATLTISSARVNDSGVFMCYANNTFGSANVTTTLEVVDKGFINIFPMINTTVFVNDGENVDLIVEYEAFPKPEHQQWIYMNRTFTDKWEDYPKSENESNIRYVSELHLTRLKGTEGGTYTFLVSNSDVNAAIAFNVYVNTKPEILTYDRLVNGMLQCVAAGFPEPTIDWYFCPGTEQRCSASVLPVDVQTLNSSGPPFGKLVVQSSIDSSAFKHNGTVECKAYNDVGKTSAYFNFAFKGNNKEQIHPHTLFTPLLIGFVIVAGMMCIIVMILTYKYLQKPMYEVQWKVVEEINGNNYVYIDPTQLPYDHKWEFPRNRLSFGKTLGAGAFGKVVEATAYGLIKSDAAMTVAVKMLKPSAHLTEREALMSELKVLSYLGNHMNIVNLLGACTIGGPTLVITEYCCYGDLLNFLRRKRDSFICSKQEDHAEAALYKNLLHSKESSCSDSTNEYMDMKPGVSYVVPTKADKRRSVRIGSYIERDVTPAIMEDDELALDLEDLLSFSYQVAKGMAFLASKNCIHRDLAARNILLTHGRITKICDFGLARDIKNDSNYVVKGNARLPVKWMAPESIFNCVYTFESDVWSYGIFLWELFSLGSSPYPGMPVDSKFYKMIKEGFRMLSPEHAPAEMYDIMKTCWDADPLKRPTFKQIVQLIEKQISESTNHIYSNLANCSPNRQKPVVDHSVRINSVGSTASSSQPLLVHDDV
Binder,"IC50, inhibition of SCF-dependent proliferation of TF-1 cells (CellTiter-Glo), Average [1] [µg/mL]","IC50, inhibition of SCF-dependent proliferation of TF-1 cells (CellTiter-Glo), Experiment #1 [1] [µg/mL]","IC50, inhibition of SCF-dependent proliferation of TF-1 cells (CellTiter-Glo), Experiment #2 [1] [µg/mL]","IC50, inhibition of SCF-dependent proliferation of CD34-positive HSPCs (CellTiter-Glo) [2] [µg/mL]",binding result [3],Kd [4] [nM],Kd [5] [nM],koff [5] [s⁻¹],kon [5] [M⁻¹ s⁻¹],binding result [6],EC50 (read off the curve) [3] [µg/mL]
B1,> 0.5,> 0.5,> 0.5,> 10,no binding (tested: 5 ug/ml),,,,,,
B2,0.22,0.12,0.321,0.0949,,0.4,0.79,0.000397,503000,,
B3,,,,,,,,,,binds,
B4,,,,,,,,,,binds,
B5,,,,,,,,,,binds,
B6,,,,,,,,,,binds,
B7,0.0441,0.0415,0.0467,0.0313,,0.45,,,,,~0.02
B8,0.151,0.0455,0.256,0.0842,,1.1,,,,,~0.04
B9,> 0.5,> 0.5,> 0.5,> 10,,8.3,,,,,~0.2
B10,0.0176,0.0122,0.0231,0.00521,,0.19,,,,,~0.02
B11,,,,,,,,,,binds,
B12,> 0.5,> 0.5,> 0.5,0.594,,1.6,,,,,
B13,> 0.5,> 0.5,> 0.5,> 10,,3.3,,,,,~0.1
